Test results from patent US20240190915A1 (KLINIKUM RECHTS DER ISAR DER TECHNISCHEN UNIVERSIT T M NCHEN, published 2024).

How the values were obtained:
[1] = target: T1, AGR2 (human, endogenous in PDAC cells) (human, UniProt O95994 21-175, limits assumed); assay: co-IP competition in Capan2 cells (FIG. 5B)
T1 construct: Endogenous protein co-immunoprecipitated from Capan2 cell lysate
T1 sequence (looked up): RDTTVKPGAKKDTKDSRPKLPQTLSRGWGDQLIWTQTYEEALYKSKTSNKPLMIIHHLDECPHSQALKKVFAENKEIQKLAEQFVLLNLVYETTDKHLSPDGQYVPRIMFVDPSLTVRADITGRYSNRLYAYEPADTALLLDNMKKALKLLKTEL

[2] = target: Polr2a (mouse, endogenous) (mouse, UniProt P08775 1-1970); assay: co-IP, endogenous proteins, mouse pancreatic tissue
[3] = target: T1, AGR2 (human, endogenous in PDAC cells); assay: co-IP competition in PDAC cells, dose-dependent inhibition of POLR2A-AGR2 binding

## NTAIYY (also called bioactive hexapeptide) [hexapeptide NTAIYY (SEQ ID NO:2)]
[1]
  binding result: binds

B1: Agr2 (mouse, endogenous) (other)
chain: KDTTVKSGAKKDPKDSRPKLPQTLSRGWGDQLIWTQTYEEALYRSKTSNRPLMVIHHLDECPHSQALKKVFAEHKEIQKLAEQFVLLNLVYETTDKHLSPDGQYVPRIVFVDPSLTVRADITGRYSNRLYAYEPSDTALLYDNMKKALKLLKTEL
notes: Endogenous protein co-immunoprecipitated from mouse pancreatic tissue lysate
[2]
  binding result: binds

B2: hexapeptide PTTIYY (SEQ ID NO:4) (peptide)
peptide: PTTIYY
notes: Synthetic, previously described peptide used as positive control; liposome-encapsulated form; also called bioactive hexapeptide; positive control
[3]
  binding result: binds
